Article PMC4337721 (2015)
Each block holds one binder with its values, some of them ahead of it.

Experiments:
[1] = target: BiP ATPase domain (residues 28–405), His6-tag removed (human, UniProt P11021 28-405); test: MST
[2] = target: T1, full-length BiP (BiP FL, residues 28–654), His6-tag removed (human, UniProt P11021 28-654); test: MST; 10 mM AMPPNP
[3] = target: T1, full-length BiP (BiP FL, residues …); test: MST; 10 mM ATP
[4] = target: T1, full-length BiP (BiP FL, residues …); test: MST; no nucleotide
[5] = target: T1, full-length BiP (BiP FL, residues …); test: MST; 10 mM ADP

BiP ATPase domain (residues 28–405), His6-tag removed, sequence (P11021 28-405): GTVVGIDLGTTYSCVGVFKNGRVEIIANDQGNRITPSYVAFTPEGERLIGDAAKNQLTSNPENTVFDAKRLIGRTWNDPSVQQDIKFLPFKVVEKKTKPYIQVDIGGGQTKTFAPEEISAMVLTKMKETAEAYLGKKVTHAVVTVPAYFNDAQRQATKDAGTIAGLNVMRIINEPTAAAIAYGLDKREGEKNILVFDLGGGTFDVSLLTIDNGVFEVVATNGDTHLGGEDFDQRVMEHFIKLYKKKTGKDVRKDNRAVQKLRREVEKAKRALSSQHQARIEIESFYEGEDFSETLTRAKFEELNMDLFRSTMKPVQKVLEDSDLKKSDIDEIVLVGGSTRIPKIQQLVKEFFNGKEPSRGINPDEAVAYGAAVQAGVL
T1 sequence (P11021 28-654): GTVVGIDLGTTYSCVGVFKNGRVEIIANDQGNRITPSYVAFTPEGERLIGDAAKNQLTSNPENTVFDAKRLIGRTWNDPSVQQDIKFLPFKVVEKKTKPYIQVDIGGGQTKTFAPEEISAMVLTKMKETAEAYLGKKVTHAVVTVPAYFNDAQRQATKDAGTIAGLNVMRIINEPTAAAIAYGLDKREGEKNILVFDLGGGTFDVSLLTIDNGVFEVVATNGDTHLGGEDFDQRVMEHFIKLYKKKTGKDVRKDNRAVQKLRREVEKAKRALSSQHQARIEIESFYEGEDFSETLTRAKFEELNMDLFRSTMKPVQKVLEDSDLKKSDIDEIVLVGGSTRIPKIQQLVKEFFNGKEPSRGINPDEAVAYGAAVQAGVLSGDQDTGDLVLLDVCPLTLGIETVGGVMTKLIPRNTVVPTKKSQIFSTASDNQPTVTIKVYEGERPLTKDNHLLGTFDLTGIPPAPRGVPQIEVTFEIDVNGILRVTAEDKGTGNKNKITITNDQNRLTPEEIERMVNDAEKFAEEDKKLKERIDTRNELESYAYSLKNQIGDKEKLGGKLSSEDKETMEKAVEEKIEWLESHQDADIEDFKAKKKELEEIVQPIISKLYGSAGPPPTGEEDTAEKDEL

Kd [1]: 2350 nM
B1: Perk luminal domain region I–IV (residues 54–403) (domain or fragment)
chain: TSATRVPAAGAVAAAEVTVEDAEALPAAAGEQEPRGPEPDDETELRPRGRSLVIISTLDGRIAALDPENHGKKQWDLDVGSGSLVSSSLSKPEVFGNKMIIPSLDGALFQWDQDRESMETVPFTVESLLESSYKFGDDVVLVGGKSLTTYGLSAYSGKVRYICSALGCRQWDSDEMEQEEDILLLQRTQKTVRAVGPRSGNEKWNFSVGHFELRYIPDMETRAGFIESTFKPNENTEESKIISDVEEQEAAIMDIVIKVSVADWKVMAFSKKGGHLEWEYQFCTPIASAWLLKDGKVIPISLFDDTSYTSNDDVLEDEEDIVEAARGATENSVYLGMYRGQLYLQSSVRI

Kd [2]: 850 nM
Kd [3]: 830 nM
Kd [4]: 1340 nM
Kd [5]: 1370 nM
B2: Perk luminal domain, complete (region I–V, residues 54–509) (domain or fragment)
chain: TSATRVPAAGAVAAAEVTVEDAEALPAAAGEQEPRGPEPDDETELRPRGRSLVIISTLDGRIAALDPENHGKKQWDLDVGSGSLVSSSLSKPEVFGNKMIIPSLDGALFQWDQDRESMETVPFTVESLLESSYKFGDDVVLVGGKSLTTYGLSAYSGKVRYICSALGCRQWDSDEMEQEEDILLLQRTQKTVRAVGPRSGNEKWNFSVGHFELRYIPDMETRAGFIESTFKPNENTEESKIISDVEEQEAAIMDIVIKVSVADWKVMAFSKKGGHLEWEYQFCTPIASAWLLKDGKVIPISLFDDTSYTSNDDVLEDEEDIVEAARGATENSVYLGMYRGQLYLQSSVRISEKFPSSPKALESVTNENAIIPLPTIKWKPLIHSPSRTPVLVGSDEFDKCLSNDKFSHEEYSNGALSILQYPYDNGYYLPYYKRERNKRSTQITVRFLDNPHYNKN

Kd [2]: 1140 nM
Kd [3]: 1090 nM
Kd [4]: 1920 nM
Kd [5]: 1200 nM
B3: Ire1 luminal domain, complete (region I–V, residues 24–440) (domain or fragment)
chain: STVTLPETLLFVSTLDGSLHAVSKRTGSIKWTLKEDPVLQVPTHVEEPAFLPDPNDGSLYTLGSKNNEGLTKLPFTIPELVQASPCRSSDGILYMGKKQDIWYVIDLLTGEKQQTLSSAFADSLCPSTSLLYLGRTEYTITMYDTKTRELRWNATYFDYAASLPEDDVDYKMSHFVSNGDGLVVTVDSESGDVLWIQNYASPVVAFYVWQREGLRKVMHINVAVETLRYLTFMSGEVGRITKWKYPFPKETEAKSKLTPTLYVGKYSTSLYASPSMVHEGVAVVPRGSTLPLLEGPQTDGVTIGDKGECVITPSTDVKFDPGLKSKNKLNYLRNYWLLIGHHETPLSASTKMLERFPNNLPKHRENVIPADSEKKSFEEVINLVDQTSENAPTTVSRDVEEKPAHAPARPEAPVDSM

Kd [1]: 1860 nM
B4: Ire1 luminal domain region I–IV (residues 24–390) (domain or fragment)
chain: STVTLPETLLFVSTLDGSLHAVSKRTGSIKWTLKEDPVLQVPTHVEEPAFLPDPNDGSLYTLGSKNNEGLTKLPFTIPELVQASPCRSSDGILYMGKKQDIWYVIDLLTGEKQQTLSSAFADSLCPSTSLLYLGRTEYTITMYDTKTRELRWNATYFDYAASLPEDDVDYKMSHFVSNGDGLVVTVDSESGDVLWIQNYASPVVAFYVWQREGLRKVMHINVAVETLRYLTFMSGEVGRITKWKYPFPKETEAKSKLTPTLYVGKYSTSLYASPSMVHEGVAVVPRGSTLPLLEGPQTDGVTIGDKGECVITPSTDVKFDPGLKSKNKLNYLRNYWLLIGHHETPLSASTKMLERFPNNLPKHRENV

Kd [1]: 2020 nM
B5: Ire1 luminal domain region II–V (residues 32–440) (domain or fragment)
chain: LLFVSTLDGSLHAVSKRTGSIKWTLKEDPVLQVPTHVEEPAFLPDPNDGSLYTLGSKNNEGLTKLPFTIPELVQASPCRSSDGILYMGKKQDIWYVIDLLTGEKQQTLSSAFADSLCPSTSLLYLGRTEYTITMYDTKTRELRWNATYFDYAASLPEDDVDYKMSHFVSNGDGLVVTVDSESGDVLWIQNYASPVVAFYVWQREGLRKVMHINVAVETLRYLTFMSGEVGRITKWKYPFPKETEAKSKLTPTLYVGKYSTSLYASPSMVHEGVAVVPRGSTLPLLEGPQTDGVTIGDKGECVITPSTDVKFDPGLKSKNKLNYLRNYWLLIGHHETPLSASTKMLERFPNNLPKHRENVIPADSEKKSFEEVINLVDQTSENAPTTVSRDVEEKPAHAPARPEAPVDSM

Kd [1]: 1550 nM
B6: Ire1 luminal domain region II–IV (residues 32–390) (domain or fragment)
chain: LLFVSTLDGSLHAVSKRTGSIKWTLKEDPVLQVPTHVEEPAFLPDPNDGSLYTLGSKNNEGLTKLPFTIPELVQASPCRSSDGILYMGKKQDIWYVIDLLTGEKQQTLSSAFADSLCPSTSLLYLGRTEYTITMYDTKTRELRWNATYFDYAASLPEDDVDYKMSHFVSNGDGLVVTVDSESGDVLWIQNYASPVVAFYVWQREGLRKVMHINVAVETLRYLTFMSGEVGRITKWKYPFPKETEAKSKLTPTLYVGKYSTSLYASPSMVHEGVAVVPRGSTLPLLEGPQTDGVTIGDKGECVITPSTDVKFDPGLKSKNKLNYLRNYWLLIGHHETPLSASTKMLERFPNNLPKHRENV

Kd [1]: 2280 nM
B7: Perk luminal domain region II–IV (printed residues 54–403) (domain or fragment)
chain: LVIISTLDGRIAALDPENHGKKQWDLDVGSGSLVSSSLSKPEVFGNKMIIPSLDGALFQWDQDRESMETVPFTVESLLESSYKFGDDVVLVGGKSLTTYGLSAYSGKVRYICSALGCRQWDSDEMEQEEDILLLQRTQKTVRAVGPRSGNEKWNFSVGHFELRYIPDMETRAGFIESTFKPNENTEESKIISDVEEQEAAIMDIVIKVSVADWKVMAFSKKGGHLEWEYQFCTPIASAWLLKDGKVIPISLFDDTSYTSNDDVLEDEEDIVEAARGATENSVYLGMYRGQLYLQSSVRI

Kd [1]: 2690 nM
B8: Perk luminal domain region II–V (residues 105–509) (domain or fragment)
chain: LVIISTLDGRIAALDPENHGKKQWDLDVGSGSLVSSSLSKPEVFGNKMIIPSLDGALFQWDQDRESMETVPFTVESLLESSYKFGDDVVLVGGKSLTTYGLSAYSGKVRYICSALGCRQWDSDEMEQEEDILLLQRTQKTVRAVGPRSGNEKWNFSVGHFELRYIPDMETRAGFIESTFKPNENTEESKIISDVEEQEAAIMDIVIKVSVADWKVMAFSKKGGHLEWEYQFCTPIASAWLLKDGKVIPISLFDDTSYTSNDDVLEDEEDIVEAARGATENSVYLGMYRGQLYLQSSVRISEKFPSSPKALESVTNENAIIPLPTIKWKPLIHSPSRTPVLVGSDEFDKCLSNDKFSHEEYSNGALSILQYPYDNGYYLPYYKRERNKRSTQITVRFLDNPHYNKN
